Experimental data published in patent US20250361322A1 (ICONIC THERAPEUTICS, published 2025).

Columns and labels:
Test in all cases: cell-based or functional assay
[1] = molecular target: human Tissue Factor (hTF) (human, UniProt P13726 33-295)
Relipidated TF [2] = molecular target: Relipidated TF
Relipidated TF [3] = molecular target: Relipidated TF (UniProt P13726 33-295, limits assumed)

Binder	% ETP, TGA with 10 min antibody pre-incubation, 10 nM antibody (Relipidated TF [2]) [%]	% Peak IIa, TGA with 10 min antibody pre-incubation, 10 nM antibody (Relipidated TF [2]) [%]	% Peak IIa, TGA with 10 min antibody pre-incubation, 50 nM antibody (Relipidated TF [2]) [%]	% Peak IIa, TGA with 10 min antibody pre-incubation, 100 nM antibody (Relipidated TF [2]) [%]	% ttPeak, TGA with 10 min antibody pre-incubation, 10 nM antibody (Relipidated TF [2]) [%]	% ttPeak, TGA with 10 min antibody pre-incubation, 50 nM antibody (Relipidated TF [2]) [%]	% ttPeak, TGA with 10 min antibody pre-incubation, 100 nM antibody (Relipidated TF [2]) [%]	Lag Time, TGA with 10 min antibody pre-incubation, 10 nM antibody (Relipidated TF [2]) [min]	Lag Time, TGA with 10 min antibody pre-incubation, 50 nM antibody (Relipidated TF [2]) [min]	Lag Time, TGA with 10 min antibody pre-incubation, 100 nM antibody (Relipidated TF [2]) [min]	Peak IIa, TGA with 10 min antibody pre-incubation, 10 nM antibody (Relipidated TF [2]) [nM]	Peak IIa, TGA with 10 min antibody pre-incubation, 50 nM antibody (Relipidated TF [2]) [nM]	% ETP, Ab conc. 10 nM (Relipidated TF [3]) [%]	% Peak IIa, Ab conc. 10 nM (Relipidated TF [3]) [%]	% Peak IIa, Ab conc. 50 nM (Relipidated TF [3]) [%]	% Peak IIa, Ab conc. 100 nM (Relipidated TF [3]) [%]	% ttPeak, Ab conc. 10 nM (Relipidated TF [3]) [%]	% ttPeak, Ab conc. 50 nM (Relipidated TF [3]) [%]	% ttPeak, Ab conc. 100 nM (Relipidated TF [3]) [%]	IC50, cell viability of A431 cells, Secondary ADC (antibody with anti-human Fc Fab:MMAF), Continuous (FIG. 18B) [1] [pM]	also measured
29E (antibody, IgG1, V domains shown) VH: QVQLVESGGGVVQPGRSLRLSCAASGFTFRSYGMHWVRQAPGKGLEWVAVITYDGINKYYADSVEGRFTISRDNSKNTLYLQMNSLRAEDTAVYYCARDGVYYGVYDYWGQGTLVTVSS VL: not shown													95	71	29	24	48	186	232		% ETP, Ab conc. 50 nM (Relipidated TF [3]): 67%; % ETP, Ab conc. 100 nM (Relipidated TF [3]): 62%
TF-011 (antibody, V domains shown) VH: EVQLLESGGGLVQPGGSLRLSCAASGFTFSNYAMSWVRQAPGKGLEWVSSISGSGDYTYYTDSVKGRFTISRDNSKNTLYLQMNSLRAEDTAVYYCARSPWGYYLDSWGQGTLVTVSS VL: DIQMTQSPPSLSASAGDRVTITCRASQGISSRLAWYQQKPEKAPKSLIYAASSLQSGVPSRFSGSGSGTDFTLTISSLQPEDFATYYCQQYNSYPYTFGQGTKLEIK													85	47	12		86	284			
5G9 (humanized TF8-5G9, CNTO 860) (antibody, V domains shown) VH: QVQLVESGGGVVQPGRSLRLSCKASGFNIKDYYMHWVRQAPGKGLEWIGLIDPENGNTIYDPKFQGRFTISADNSKNTLFLQMDSLRPEDTAVYYCARDNSYYFDYWGQGTPVTVSS VL: DIQMTQSPSSLSASVGDRVTITCKASQDIRKYLNWYQQKPGKAPKLLIYYATSLADGVPSRFSGSGSGTDYTFTISSLQPEDIATYYCLQHGESPYTFGQGTKLEIT													58	24	8	8	135	338	401		
39A (antibody, IgG1, V domains shown) VH: QVQLVQSGAEVKKPGSSVKVSCKASGGTFSSNAIGWVRQAPGQGLEWMGSIIPIIGFANYAQKFQGRVTITADESTSTAYMELSSLRSEDTAVYYCARDSGYYYGASSFGMDVWGQGTTVTVSS VL: EIVMTQSPATLSVSPGERATLSCRASQSVSSNLAWYQQKPGQAPRLLIYGASTRATGIPARFSGSGSGTEFTLTISSLQSEDFAVYYCEQYNNLPLTFGGGTKVEIK													84	37	11	9	135	397	465		

Now from value to binder, other results behind:

% ETP, TGA with 10 min antibody pre-incubation, 10 nM antibody (Relipidated TF [2]) [%]	% Peak IIa, TGA with 10 min antibody pre-incubation, 10 nM antibody (Relipidated TF [2]) [%]	% Peak IIa, TGA with 10 min antibody pre-incubation, 50 nM antibody (Relipidated TF [2]) [%]	% Peak IIa, TGA with 10 min antibody pre-incubation, 100 nM antibody (Relipidated TF [2]) [%]	% ttPeak, TGA with 10 min antibody pre-incubation, 10 nM antibody (Relipidated TF [2]) [%]	% ttPeak, TGA with 10 min antibody pre-incubation, 50 nM antibody (Relipidated TF [2]) [%]	% ttPeak, TGA with 10 min antibody pre-incubation, 100 nM antibody (Relipidated TF [2]) [%]	Lag Time, TGA with 10 min antibody pre-incubation, 10 nM antibody (Relipidated TF [2]) [min]	Lag Time, TGA with 10 min antibody pre-incubation, 50 nM antibody (Relipidated TF [2]) [min]	Lag Time, TGA with 10 min antibody pre-incubation, 100 nM antibody (Relipidated TF [2]) [min]	Peak IIa, TGA with 10 min antibody pre-incubation, 10 nM antibody (Relipidated TF [2]) [nM]	Peak IIa, TGA with 10 min antibody pre-incubation, 50 nM antibody (Relipidated TF [2]) [nM]	% ETP, Ab conc. 10 nM (Relipidated TF [3]) [%]	% Peak IIa, Ab conc. 10 nM (Relipidated TF [3]) [%]	% Peak IIa, Ab conc. 50 nM (Relipidated TF [3]) [%]	% Peak IIa, Ab conc. 100 nM (Relipidated TF [3]) [%]	% ttPeak, Ab conc. 10 nM (Relipidated TF [3]) [%]	% ttPeak, Ab conc. 50 nM (Relipidated TF [3]) [%]	% ttPeak, Ab conc. 100 nM (Relipidated TF [3]) [%]	Binder	IC50, cell viability of A431 cells, Secondary ADC (antibody with anti-human Fc Fab:MMAF), Continuous (FIG. 18B) [1] [pM]	also measured
77	36	30	28	159	237	247	9.4	14.1	14.7	98	83								anti-TF antibody 29E (antibody, human IgG1, V domains shown) VH: QVQLVESGGGVVQPGRSLRLSCAASGFTFRSYGMHWVRQAPGKGLEWVAVITYDGINKYYADSVEGRFTISRDNSKNTLYLQMNSLRAEDTAVYYCARDGVYYGVYDYWGQGTLVTVSS VL: not shown	100	% ETP, TGA with 10 min antibody pre-incubation, 50 nM antibody (Relipidated TF [2]): 72%; % ETP, TGA with 10 min antibody pre-incubation, 100 nM antibody (Relipidated TF [2]): 66%; ETP, TGA with 10 min antibody pre-incubation, 10 nM antibody (Relipidated TF [2]): 1410 nM·min; ETP, TGA with 10 min antibody pre-incubation, 50 nM antibody (Relipidated TF [2]): 1300 nM·min; ETP, TGA with 10 min antibody pre-incubation, 100 nM antibody (Relipidated TF [2]): 1200 nM·min; Peak IIa, TGA with 10 min antibody pre-incubation, 100 nM antibody (Relipidated TF [2]): 76 nM; ttPeak, TGA with 10 min antibody pre-incubation, 10 nM antibody (Relipidated TF [2]): 18.1 min; ttPeak, TGA with 10 min antibody pre-incubation, 50 nM antibody (Relipidated TF [2]): 23.6 min; ttPeak, TGA with 10 min antibody pre-incubation, 100 nM antibody (Relipidated TF [2]): 24.3 min
0	13	8	7	319	491	537	19.6	30.7	33.6	36	22								anti-TF antibody 39A (antibody, human IgG1, V domains shown) VH: QVQLVQSGAEVKKPGSSVKVSCKASGGTFSSNAIGWVRQAPGQGLEWMGSIIPIIGFANYAQKFQGRVTITADESTSTAYMELSSLRSEDTAVYYCARDSGYYYGASSFGMDVWGQGTTVTVSS VL: EIVMTQSPATLSVSPGERATLSCRASQSVSSNLAWYQQKPGQAPRLLIYGASTRATGIPARFSGSGSGTEFTLTISSLQSEDFAVYYCEQYNNLPLTFGGGTKVEIK	80	Peak IIa, TGA with 10 min antibody pre-incubation, 100 nM antibody (Relipidated TF [2]): 19 nM; ttPeak, TGA with 10 min antibody pre-incubation, 10 nM antibody (Relipidated TF [2]): 29.3 min; ttPeak, TGA with 10 min antibody pre-incubation, 50 nM antibody (Relipidated TF [2]): 41.4 min; ttPeak, TGA with 10 min antibody pre-incubation, 100 nM antibody (Relipidated TF [2]): 44.6 min
